In patent US20230398184A1, “METHODS OF INDUCING STEM CELL MOBILIZATION” (NeoImmuneTech, Inc., priority 2020, published 2023):

Legend:
Format in all cases: in vivo, C57BL/6 mice
LSK cells and HSCs [1] = assay: IL-7 and AMD3100 combination, HSC mobilization into peripheral blood; conditions: IL-7 0.5 mg/kg day 0; AMD3100 5 mg/kg 1 hour prior to analysis; day 3
Description: As described herein, AMD3100 (CXCR4 antagonist) is another regimen that is commonly used to promote the migration of HSCs from the bone marrow into the peripheral blood. Cashen et al., Future Oncol 3(1): 19-27 (February 2007). To determine whether IL-7 can also enhance the HSC mobilization effects of AMD3100, C57BL/6 animals received a single subcutaneous administration of the following: (i) buffer alone, (ii) IL-7 alone (0.5 mg/kg), (iii) AMD3100 (5 mg/kg), and (iv) IL-7 (0.5 mg/kg) in combination with AMD3100 (5 mg/kg). […] At day 3 post initial administration, the number of both LSK cells and HSCs were again assessed in the peripheral blood using flow cytometry.

LSK cells and HSCs [2] = assay: IL-7 and G-CSF combination, HSC mobilization into peripheral blood; conditions: IL-7 0.5 mg/kg or G-CSF 5 μg s.c., day 3
Description: To determine whether the combined treatment of IL-7 and G-CSF can further improve the mobilization of HSCs into the peripheral blood, C57BL/6 animals received a single subcutaneous administration of one of the following: (i) buffer alone, (ii) IL-7 alone (0.5 mg/kg), (iii) pegylated recombinant human G-CSF alone (5 μg), and (iv) IL-7 (0.5 mg/kg) in combination with G-CSF (5 μg). Then, at day 3 post administration, both the number of LSK cells and HSCs in the peripheral blood were assessed using flow cytometry.

LSK cells and HSCs [3] = assay: Comparison of IL-7 with G-CSF and G-CSF + AMD3100 on mobilization of HSCs to peripheral blood; conditions: PEG-rhG-CSF 5 μg s.c. day 3; rhG-CSF 6.25 μg/day days 0-3
Description: As described herein, granulocyte colony stimulating factor (G-CSF) is a standard regimen used in the clinic to induce HSC mobilization. Therefore, the potency of IL-7 was compared to that of G-CSF on inducing the mobilization of HSCs to peripheral blood was assessed. Briefly, C57BL/6 mice were treated with one of the following: (i) control buffer (“control”), (ii) IL-7 protein (“IL-7”) (2.5 mg/kg; subcutaneous), (iii) long-acting pegylated recombinant human G-CSF (“PEG-rhG-CSF”) (5 μg; subcutaneous), or (iv) non-pegylated recombinant human G-CSF (“rhG-CSF”) (twice a day (6.25 μg/day) at days 0, 1, 2, and 3 (i.e., total dose of 25 μg/mouse); subcutaneous). In animals treated with the IL-7 protein or PEG-rhG-CSF, the number of LSK cells and HSCs was determined in the peripheral blood at day 3 post administration. In animals treated with rhG-CSF, the number of LSK cells and HSCs in the peripheral blood was assessed within 6-8 hours after last rhG-CSF administration.
In this regard, the potency of IL-7 protein alone to the G-CSF+AMD3100 combinational regimen was next compared. Briefly, normal C57BL/6 mice were administered with one of the following: (i) control buffer, (ii) IL-7 protein alone, (iii) pegylated recombinant human G-CSF (“G-CSF”), or (iv) G-CSF in combination with AMD3100. Then, the number of HSCs in the peripheral blood was assessed at day 3 post administration.

c1cc(CN2CCCNCCNCCCNCC2)ccc1CN1CCCNCCNCCCNCC1 [AMD3100]
amount of LSK cells and HSCs in peripheral blood vs control (LSK cells and HSCs [1]): comparable to that of the control animals

B1: PEG-rhG-CSF: long-acting pegylated recombinant human G-CSF (protein, UniProt P09919 31-207, looked up)
Granulocyte …: TPLGPASSLPQSFLLKCLEQVRKIQGDGAALQEKLVSECATYKLCHPEELVLLGHSLGIPWAPLSSCPSQALQLAGCLSQLHSGLFLYQGLLQALEGISPELGPTLDTLQLDVADFATTIWQQMEELGMAPALQPTQGAMPAFASAFQRRAGGVLVASHLQSFLEVSYRVLRHLAQP
modifications: PEG
amount of LSK cells in peripheral blood vs buffer alone (LSK cells and HSCs [2]): increased amount
efficacy of mobilization, the two types of G-CSF compared (LSK cells and HSCs [3]): comparable efficacy of mobilization

B2: rhG-CSF: non-pegylated recombinant human G-CSF (protein, UniProt P09919 31-207, looked up)
Granulocyte …: TPLGPASSLPQSFLLKCLEQVRKIQGDGAALQEKLVSECATYKLCHPEELVLLGHSLGIPWAPLSSCPSQALQLAGCLSQLHSGLFLYQGLLQALEGISPELGPTLDTLQLDVADFATTIWQQMEELGMAPALQPTQGAMPAFASAFQRRAGGVLVASHLQSFLEVSYRVLRHLAQP
efficacy of mobilization, the two types of G-CSF compared (LSK cells and HSCs [3]): comparable efficacy of mobilization
